Assay results as given in patent US20110293511A1, “SPECIFIC BINDING PROTEINS AND USES THEREOF” (priority 2009, published 2011).
Values joined by “and” are separate entries in the source; they are usually repeats but may differ in a detail not shown here. Identical values can stand only once. “Also recorded” adds a separate entry of the source.

What was measured:
U87MG.DK cells = assay: binding to cell lines by FACS; design: species or system human
Procedure: Populations expressing similar levels of the various EGFR alleles (these expression levels correspond approximately to an amplification level of 25 gene copies; human glioblastomas typically have amplification levels from 10 to 50 gene copies of the truncated receptor) were selected by FACS as described previously (Nishikawa et al., 1994) and designated as U87MG.ΔEGFR, U87MG.DK, U87MG.wtEGFR, LN-Z308.ΔEGFR, LN-Z308.DK, LN-Z308.wtEGFR, A1207.ΔEGFR, A1207.DK, and A1207.wtEGFR, respectively. Each was maintained in medium containing G418 (U87MG cell lines, 400 μg/ml; LN-Z308 and A1207 cell lines, 800 μg/ml).
Stained cells were analyzed with a FACS Calibur using Cell Quest software (Becton-Dickinson PharMingen). […] 1. Mouse IgG2a or IgG2b was used as an isotype control.

A431 xenografts = assay: s.c. xenograft therapy study; assay type: in vivo, nude mice; conditions: for mean tumor volume: day 13, 1 mg injection
Procedure: Tumor cells (3×10^6) in […] of PBS were inoculated subcutaneously into both flanks of 4-6 week old female nude mice (Animal Research Centre, Western Australia, Australia). […] Treatment was continued for a total of 6 doses, 3 times per week for 2 weeks. In the established model, treatment was started when tumors had reached a mean volume of 65±6.42 mm^3 (U87MG.Δ2-7), 84±9.07 mm3 (U87MG), 73±7.5 mm^3 (U87MG.wtEGFR) or 201±19.09 mm^3 (A431 tumors). Tumor volume in mm^3 was determined using the formula […], where length was the longest axis and width the measurement at right angles to the length (Clark et al. (2000) Therapeutic efficacy of anti-Lewis (y) humanized 3S 193 radioimmunotherapy in a breast cancer model: enhanced activity when combined with Taxol chemotherapy. Clin. Cancer Res. 6, 3621-3628). Data was expressed as mean tumor volume±S.E. for each treatment group. Statistical analysis was performed at given time points using Student's t-test. Animals were euthanized when the xenografts reached an approximate volume of 1.5 cm^3 and the tumors excised for histological examination. This research project was approved by the Animal Ethics Committee of the Austin and Repatriation Medical Centre.
AG1478 (4-(3-Chloroanilino)-6,7-dimethoxyquinazoline) is a potent and selective inhibitor of the EGFR kinase versus HER2-neu and platelet-derived growth factor receptor kinase (Calbiochem Cat. No. 658552). […] The results are illustrated in FIG. 12. […] 400 μg AG1478 was administered at 0, 2, 4, 7, 9, and 11 days post xenograft.
With respect to “(iv),” different groups of mice received either 0.5 mg/injection of each mAb, or 0.25 mg/injection of each mAb.
Finally, the fourth group of mice, which had been inoculated with A431 cells, received injections as in groups I and III, at 8, 10, 12 and 14 days after inoculation. At the start, the average tumor size was 71 mm^3.
To establish xenografts, mice were injected subcutaneously into the right and left inguinal mammary line with 1×10^6 A431 adenocarcinoma cells or 1×10^6 U87MG.de2-7 glioma cells in 100 μl of PBS. Tumor volume (TV) was calculated by the formula […] where length was the longest axis and width the measurement at right angles to length. […] Therapy was administered on days 6, 8, 11, 13, 15 and 18 for A431, and days 4, 6, 8, 11, 13 and 15 for the U87MG.de2-7 cell lines respectively. Mean±SEM tumor volumes until termination of the experiments due to ethical considerations of tumor burden are presented in FIG. 91 for the A431 xenograft until day 25, and in FIG. 92 for U87MG.de2-7 xenografts until day 31.

A431 cells = assay: binding to cell lines by FACS; design: species or system human
deglycosylated sEGFR = target: T1, deglycosylated sEGFR (Homo sapiens, UniProt P00533); assay: immunoblot of PNGase F treated sEGFR; assay type: binding
T1 construct: sEGFR is the recombinant extracellular domain (amino acids 1-621) of the wild-type EGFR); host or cells: CHO cells
Procedure: To determine if carbohydrate structures are directly involved in the mAb806 epitope, the recombinant sEGFR expressed in CHO cells was treated with PNGase F to remove N-linked glycosylation.

[1] = target: T2, biotinylated de2-7 specific peptide (Homo sapiens, UniProt P00533, DELINS30-297G); assay: ELISA on de2-7 junctional peptide; assay type: binding
T2 construct: purchased Auspep, Melbourne, Australia; host or cells: chemical synthesis (Fmoc)
Source text: In the second assay, the biotinylated de2-7 specific peptide (Biotin […] (SEQ ID NO:5)) was bound to ELISA plates precoated with streptavidin (Pierce, Rockford, Ill.). Antibodies were bound and detected as in the first assay.

[2] = system: U87MG.DK brain xenografts; assay: intracranial glioma xenograft treatment; assay type: in vivo, nude mice; conditions: i.p. day 0 through 14
U87MG brain xenografts = assay: intracranial glioma xenograft treatment; assay type: in vivo, nude mice; conditions: i.p. day 0 through 14
xenograft A431 = assay: immunohistochemical analysis on xenograft tumors; assay type: binding, human
Source text: The murine fibroblast line NR6ΔEGFR was used as immunogen. Mouse hybridomas were generated by immunizing BALB/c mice five times subcutaneously at 2- to 3-week intervals, with 5×10^5-2×10^6 cells in adjuvant. Complete Freund's adjuvant was used for the first injection. Thereafter, incomplete Freund's adjuvant (Difco™, Voigt Global Distribution, Lawrence, Kans.) was used. Spleen cells from immunized mice were fused with mouse myeloma cell line SP2/0 (Shulman et al. (1978) Nature 276:269-270). Supernatants of newly generated clones were screened in hemadsorption assays for reactivity with cell line NR6, NR6wtEGFR, and NR6ΔEGFR and then analyzed by hemadsorption assays with human glioblastoma cell lines U87MG, U87MGwtEGFR, and U87ΔEGFR. Selected hybridoma supernatants were subsequently tested by western blotting and further analyzed by immunohistochemistry. Newly generated mAbs showing the expected reactivity pattern were purified.
Bound antibody was detected using the Dako Envision+ HRP detection system as per manufacturer's instructions. Sections were finally rinsed with water, counterstained with hematoxylin and mounted.

wtEGFR on A431 cells = target: T3, wtEGFR on A431 cells (Homo sapiens, UniProt P00533); assay: Scatchard analysis on A431 cells; assay type: binding
T3 construct: endogenous in cells; host or cells: A431 human squamous carcinoma cells

DU145 cells = assay: FACS analysis; assay type: binding, human
Source text: Clearly, mAb806 and mAb175 can recognize only a small proportion of the EGFR on cells in the presence of an autocrine stimulation loop.

B1: mAb806: murine IgG2b monoclonal antibody, clone 806, ATCC PTA-3858; VH SEQ ID NO:2, VL SEQ ID NO:4 (antibody, listed as Mus musculus, V domains shown)
VH: MRVLILLWLFTAFPGVLSDVQLQESGPSLVKPSQSLSLTCTVTGYSITSDFAWNWIRQFPGNKLEWMGYISYSGNTRYNPSLKSRISITRDTSKNQFFLQLNSVTIEDTATYYCVTAGRGFPYWGQGTLVTVSA
VL: MVSTAQFLAFLLLWFPGARCDILMTQSPSSMSVSLGDTVSITCHSSQDINSNIGWLQQRPGKSFKGLIYHGTNLDDEVPSRFSGSGSGADYSLTISSLESEDFADYYCVQYAQFPWTFGGGTKLEIKR
B1 was tested, and the FACS staining (U87MG.DK cells) was “reacted intensely”, the mean tumor volume (A431 xenografts; established model) was 451±65.58 mm^3 and 450±70 mm^3 and the “effect on xenograft growth” value (A431 xenografts; preventative model, 0.1 mg) was “significantly inhibited; also recorded: inhibited significantly”. The “reduction of tumor volume” value (A431 xenografts; preventative model, 0.1 mg mAb806, 400 μg AG1478) was “significant reduction of tumor volume”, the mean tumor volume (A431 xenografts; preventative model) was 260±60.33 mm^3 and 260±60 mm^3 and the FACS staining (A431 cells) was “Low, but highly reproducible, binding”. The “binding to deglycosylated sEGFR” value (deglycosylated sEGFR) was “clearly bound”, the “binding to the unique de2-7 EGFR peptide” value [1] was “Neither mAb806 or the 528 antibody bound to the peptide” and the effect on survival [2] was “did not extend survival”. For the same molecule, the effect on survival (U87MG brain xenografts) was “did not extend survival”, the Immunohistochemical staining (xenograft A431) was “pos. (predominantly basal” and the “receptors (binding sites) per cell” value (wtEGFR on A431 cells; A431 cells) was 2.3×10^5. The “affinity for the wtEGFR on A431 cells” value (wtEGFR on A431 cells; Scatchard, average of three experiments) was 9.5e+07 M⁻¹ and the “binding by FACS” value (DU145 cells) was “bind”.
